In publication PMC7347597, “INTS10–INTS13–INTS14 form a functional module of Integrator that binds nucleic acids and the cleavage module” (Nature Communications, 2020):

Tests used:
[1] = molecular target: T1, INT cleavage module (His10-INTS4–INTS9–(2S)-INTS11) (human, UniProt Q96HW7 1-963; Q9NV88 1-658; Q5TA45 1-600); test: pull-down; GST-INTS13 C-terminal constructs from E. coli lysates with insect cell extracts expressing cleavage module subunits, on glutathione sepharose; 50 mM HEPES pH 7.5, 200 mM NaCl, 2 mM DTT; Coomassie gel and Western blots; settings: partners not purified
T1 construct: INTS4, human; INTS9, human; INTS11, human; The tags are named in the methods of the copurification assays; also called INTS4–INTS9–INTS11; INTS4–9–11; source: insect cells (HighFive, baculovirus), coexpressed; in cell extract and purified (StrepTrap, heparin, Superose 6); not shown: His10, N-terminal, kept; tandem Strep tag (2S), N-terminal, kept; copies: + +

[2] = molecular target: T2, INTS13-INTS14 heterodimer (Homo sapiens, UniProt Q9NVM9;Q96SY0 1-706;1-518); test: EMSA; FP: 10 nM RNA, 10 mM HEPES pH 7.5, 5% glycerol, 2 mM MgCl2, 50 mM NaCl or none added, temperature not stated; EMSA: 50 mM HEPES pH 7.5, 200 mM NaCl, 2 mM MgCl2, on ice, 2 uM RNA or 1 uM DNA; settings: protein: recombinant; tags: INTS13 N-terminal 2xStrep, HRV 3C cleavable (removed if needed); copies: 1;1; hairpin
[3] = molecular target: T3, INTS10-INTS13-INTS14 heterotrimer (Homo sapiens, UniProt Q9NVR2;Q9NVM9;Q96SY0 1-710;1-706;1-518); test: as above; settings: protein: recombinant; tags: INTS13 N-terminal 2xStrep, HRV 3C cleavable (removed if needed); copies: 1;1;1; hairpin
[4] = molecular target: T2, INTS13-INTS14 heterodimer; test: fluorescence polarization; FP: 10 nM RNA, 10 mM HEPES pH 7.5, 5% glycerol, 2 mM MgCl2, 50 mM NaCl or none added, temperature not stated; EMSA: 50 mM HEPES pH 7.5, 200 mM NaCl, 2 mM MgCl2, on ice, 2 uM RNA or 1 uM DNA; settings: protein: recombinant; tags: INTS13 N-terminal 2xStrep, HRV 3C cleavable (removed if needed); copies: 1;1; label: 5'-6-FAM; single strand
[5] = molecular target: T3, INTS10-INTS13-INTS14 heterotrimer; test: as above; settings: protein: recombinant; tags: INTS13 N-terminal 2xStrep, HRV 3C cleavable (removed if needed); copies: 1;1;1; label: 5'-6-FAM; single strand

T3 sequence (Q9NVR2 whole entry, chain 1 of 3): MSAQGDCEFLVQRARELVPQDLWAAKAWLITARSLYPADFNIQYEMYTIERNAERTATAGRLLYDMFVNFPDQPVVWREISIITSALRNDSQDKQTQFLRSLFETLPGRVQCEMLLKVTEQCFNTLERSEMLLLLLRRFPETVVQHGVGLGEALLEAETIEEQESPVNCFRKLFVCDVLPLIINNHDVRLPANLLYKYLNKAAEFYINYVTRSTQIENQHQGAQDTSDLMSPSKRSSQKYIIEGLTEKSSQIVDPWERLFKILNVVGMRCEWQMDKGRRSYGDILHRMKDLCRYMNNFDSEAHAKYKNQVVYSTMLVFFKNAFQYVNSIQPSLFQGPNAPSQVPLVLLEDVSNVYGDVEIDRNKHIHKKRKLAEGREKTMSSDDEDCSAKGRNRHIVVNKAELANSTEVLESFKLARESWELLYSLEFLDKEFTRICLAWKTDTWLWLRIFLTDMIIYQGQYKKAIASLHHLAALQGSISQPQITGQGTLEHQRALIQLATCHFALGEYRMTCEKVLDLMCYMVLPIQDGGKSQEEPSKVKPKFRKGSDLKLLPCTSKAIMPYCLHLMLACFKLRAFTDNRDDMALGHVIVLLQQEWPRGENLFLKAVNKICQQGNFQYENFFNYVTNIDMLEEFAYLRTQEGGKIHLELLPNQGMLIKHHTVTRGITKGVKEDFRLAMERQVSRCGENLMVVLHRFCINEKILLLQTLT
T3 sequence (Q9NVM9 whole entry, chain 2 of 3): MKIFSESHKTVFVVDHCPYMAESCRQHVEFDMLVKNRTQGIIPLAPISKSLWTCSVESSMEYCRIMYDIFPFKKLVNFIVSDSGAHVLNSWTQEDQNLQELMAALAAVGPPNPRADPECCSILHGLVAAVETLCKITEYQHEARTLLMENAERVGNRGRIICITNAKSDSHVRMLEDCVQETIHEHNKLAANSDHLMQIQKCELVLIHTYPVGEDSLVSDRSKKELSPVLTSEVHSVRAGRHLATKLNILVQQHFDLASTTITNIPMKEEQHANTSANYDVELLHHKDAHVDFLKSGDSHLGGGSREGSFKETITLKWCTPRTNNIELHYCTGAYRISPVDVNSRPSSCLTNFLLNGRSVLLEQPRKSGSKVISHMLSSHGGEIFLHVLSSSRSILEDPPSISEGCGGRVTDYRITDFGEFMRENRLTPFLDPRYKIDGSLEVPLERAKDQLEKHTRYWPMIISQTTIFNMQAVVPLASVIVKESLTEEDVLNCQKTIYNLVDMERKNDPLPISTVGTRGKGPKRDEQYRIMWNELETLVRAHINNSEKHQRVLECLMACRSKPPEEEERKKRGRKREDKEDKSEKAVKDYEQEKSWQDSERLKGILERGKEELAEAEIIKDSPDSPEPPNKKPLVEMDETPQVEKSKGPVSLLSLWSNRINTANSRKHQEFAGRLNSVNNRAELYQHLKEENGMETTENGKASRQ
T3 sequence (Q96SY0 whole entry, chain 3 of 3): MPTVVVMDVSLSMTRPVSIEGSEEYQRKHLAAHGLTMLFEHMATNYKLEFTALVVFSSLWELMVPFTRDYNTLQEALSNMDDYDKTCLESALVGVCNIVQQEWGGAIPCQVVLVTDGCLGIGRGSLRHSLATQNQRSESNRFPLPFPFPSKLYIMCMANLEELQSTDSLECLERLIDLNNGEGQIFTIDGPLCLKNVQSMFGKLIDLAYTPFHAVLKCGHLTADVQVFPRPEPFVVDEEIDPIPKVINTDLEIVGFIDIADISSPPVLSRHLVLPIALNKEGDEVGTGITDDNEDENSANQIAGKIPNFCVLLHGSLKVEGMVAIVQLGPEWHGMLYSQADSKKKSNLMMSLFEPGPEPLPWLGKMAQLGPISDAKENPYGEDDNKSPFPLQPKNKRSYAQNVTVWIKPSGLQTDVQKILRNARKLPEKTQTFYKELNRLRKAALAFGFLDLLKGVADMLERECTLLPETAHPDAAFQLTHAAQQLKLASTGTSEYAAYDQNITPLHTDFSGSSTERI
T2 sequence (Q9NVM9 whole entry, chain 1 of 2): as the sequence (Q9NVM9 whole entry, chain 2 of 3) above
T2 sequence (Q96SY0 whole entry, chain 2 of 2): as the sequence (Q96SY0 whole entry, chain 3 of 3) above
T1 sequence (Q96HW7 whole entry, chain 1 of 3): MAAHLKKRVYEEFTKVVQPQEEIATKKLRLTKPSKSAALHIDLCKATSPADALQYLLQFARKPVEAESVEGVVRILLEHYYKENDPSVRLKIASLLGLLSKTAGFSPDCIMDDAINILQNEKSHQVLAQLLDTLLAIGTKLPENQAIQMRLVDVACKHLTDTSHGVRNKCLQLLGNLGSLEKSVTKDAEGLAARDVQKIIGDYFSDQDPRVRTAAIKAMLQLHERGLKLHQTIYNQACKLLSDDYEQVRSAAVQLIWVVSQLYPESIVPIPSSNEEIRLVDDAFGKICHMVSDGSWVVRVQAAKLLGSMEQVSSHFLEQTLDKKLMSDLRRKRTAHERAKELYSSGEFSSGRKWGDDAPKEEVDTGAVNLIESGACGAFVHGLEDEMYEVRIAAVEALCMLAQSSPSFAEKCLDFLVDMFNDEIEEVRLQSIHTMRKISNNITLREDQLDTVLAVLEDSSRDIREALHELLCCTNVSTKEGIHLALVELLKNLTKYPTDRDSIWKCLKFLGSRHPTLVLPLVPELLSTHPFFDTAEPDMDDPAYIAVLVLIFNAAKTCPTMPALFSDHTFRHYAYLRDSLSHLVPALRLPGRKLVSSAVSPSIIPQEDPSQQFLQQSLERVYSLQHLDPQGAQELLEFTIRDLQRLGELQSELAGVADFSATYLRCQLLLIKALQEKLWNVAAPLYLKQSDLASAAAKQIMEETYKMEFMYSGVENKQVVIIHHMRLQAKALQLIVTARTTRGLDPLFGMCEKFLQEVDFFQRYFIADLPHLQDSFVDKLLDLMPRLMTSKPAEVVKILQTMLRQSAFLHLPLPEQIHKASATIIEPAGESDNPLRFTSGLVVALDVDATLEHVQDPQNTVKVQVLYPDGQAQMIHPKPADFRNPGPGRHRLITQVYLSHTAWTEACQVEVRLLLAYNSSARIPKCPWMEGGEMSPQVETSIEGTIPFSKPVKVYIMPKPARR
T1 sequence (Q9NV88 whole entry, chain 2 of 3): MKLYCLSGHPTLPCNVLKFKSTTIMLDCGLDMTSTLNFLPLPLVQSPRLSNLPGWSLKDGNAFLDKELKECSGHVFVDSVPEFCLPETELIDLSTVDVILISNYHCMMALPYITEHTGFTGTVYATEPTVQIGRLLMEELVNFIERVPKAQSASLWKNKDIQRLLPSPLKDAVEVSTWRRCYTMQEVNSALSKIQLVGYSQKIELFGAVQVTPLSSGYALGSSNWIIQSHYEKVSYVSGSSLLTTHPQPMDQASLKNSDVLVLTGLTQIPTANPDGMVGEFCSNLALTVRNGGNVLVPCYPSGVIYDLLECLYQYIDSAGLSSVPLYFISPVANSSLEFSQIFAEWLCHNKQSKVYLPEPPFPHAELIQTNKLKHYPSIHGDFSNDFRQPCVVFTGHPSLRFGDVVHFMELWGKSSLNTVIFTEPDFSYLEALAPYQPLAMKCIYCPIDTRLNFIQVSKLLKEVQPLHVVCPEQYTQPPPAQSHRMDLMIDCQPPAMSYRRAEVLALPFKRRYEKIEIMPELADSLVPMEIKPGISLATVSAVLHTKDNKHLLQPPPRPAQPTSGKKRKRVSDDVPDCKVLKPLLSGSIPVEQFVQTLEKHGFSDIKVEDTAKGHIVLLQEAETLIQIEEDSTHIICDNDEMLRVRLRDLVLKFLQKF
T1 sequence (Q5TA45 whole entry, chain 3 of 3): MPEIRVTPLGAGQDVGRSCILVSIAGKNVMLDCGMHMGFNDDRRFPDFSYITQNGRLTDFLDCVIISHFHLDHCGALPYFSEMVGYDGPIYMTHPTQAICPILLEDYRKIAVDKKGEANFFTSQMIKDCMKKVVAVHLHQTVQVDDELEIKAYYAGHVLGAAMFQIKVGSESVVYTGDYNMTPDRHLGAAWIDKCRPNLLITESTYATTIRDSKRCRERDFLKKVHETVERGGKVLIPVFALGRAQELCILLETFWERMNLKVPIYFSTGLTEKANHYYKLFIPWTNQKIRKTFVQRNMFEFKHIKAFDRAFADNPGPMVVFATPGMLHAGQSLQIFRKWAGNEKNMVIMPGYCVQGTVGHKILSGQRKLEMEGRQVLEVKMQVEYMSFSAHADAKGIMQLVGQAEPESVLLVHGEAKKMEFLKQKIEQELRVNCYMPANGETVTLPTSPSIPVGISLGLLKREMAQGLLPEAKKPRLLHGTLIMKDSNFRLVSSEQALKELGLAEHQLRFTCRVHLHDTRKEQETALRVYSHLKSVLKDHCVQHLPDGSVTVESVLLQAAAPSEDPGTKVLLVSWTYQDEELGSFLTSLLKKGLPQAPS

B1: GST-INTS13 cleavage module-binding motif (CMBM, residues 649–694) (domain or fragment, human, UniProt Q9NVM9 649-694, looked up)
chain: GPVSLLSLWSNRINTANSRKHQEFAGRLNSVNNRAELYQHLKEENG
notes: INTS13, human, conserved C-terminal helices, residues 649–694; also called GST-CMBM; INTS13 CMBM; source: E. coli BL21 Star (DE3), in lysate; not shown: GST, N-terminal, kept
B1: binds [1].

In the case of GGGUGGGGGACUGCGUUCGCGCUUUCCCCUGGCCGG (structured_RNA) [U1 SL4], the binding result [2] is reported as “binds” and the “apparent K (half saturation)” value [3] is reported as roughly 1000 nM.

UUUUUUUUUUUU (ssRNA) [U12 RNA] showed a Kd [4] of 570 ± 50 nM and a Kd [5] of 420 ± 20 nM.
